Measurements taken from patent publication US20260275312, “CRISPR NUCLEASE POLYPEPTIDES AND GENE EDITING SYSTEMS COMPRISING SUCH” (ARBOR BIOTECHNOLOGIES, INC., published 2026).

T1: Nuclease S D179R (synthetic construct, D179R)
T1 chain: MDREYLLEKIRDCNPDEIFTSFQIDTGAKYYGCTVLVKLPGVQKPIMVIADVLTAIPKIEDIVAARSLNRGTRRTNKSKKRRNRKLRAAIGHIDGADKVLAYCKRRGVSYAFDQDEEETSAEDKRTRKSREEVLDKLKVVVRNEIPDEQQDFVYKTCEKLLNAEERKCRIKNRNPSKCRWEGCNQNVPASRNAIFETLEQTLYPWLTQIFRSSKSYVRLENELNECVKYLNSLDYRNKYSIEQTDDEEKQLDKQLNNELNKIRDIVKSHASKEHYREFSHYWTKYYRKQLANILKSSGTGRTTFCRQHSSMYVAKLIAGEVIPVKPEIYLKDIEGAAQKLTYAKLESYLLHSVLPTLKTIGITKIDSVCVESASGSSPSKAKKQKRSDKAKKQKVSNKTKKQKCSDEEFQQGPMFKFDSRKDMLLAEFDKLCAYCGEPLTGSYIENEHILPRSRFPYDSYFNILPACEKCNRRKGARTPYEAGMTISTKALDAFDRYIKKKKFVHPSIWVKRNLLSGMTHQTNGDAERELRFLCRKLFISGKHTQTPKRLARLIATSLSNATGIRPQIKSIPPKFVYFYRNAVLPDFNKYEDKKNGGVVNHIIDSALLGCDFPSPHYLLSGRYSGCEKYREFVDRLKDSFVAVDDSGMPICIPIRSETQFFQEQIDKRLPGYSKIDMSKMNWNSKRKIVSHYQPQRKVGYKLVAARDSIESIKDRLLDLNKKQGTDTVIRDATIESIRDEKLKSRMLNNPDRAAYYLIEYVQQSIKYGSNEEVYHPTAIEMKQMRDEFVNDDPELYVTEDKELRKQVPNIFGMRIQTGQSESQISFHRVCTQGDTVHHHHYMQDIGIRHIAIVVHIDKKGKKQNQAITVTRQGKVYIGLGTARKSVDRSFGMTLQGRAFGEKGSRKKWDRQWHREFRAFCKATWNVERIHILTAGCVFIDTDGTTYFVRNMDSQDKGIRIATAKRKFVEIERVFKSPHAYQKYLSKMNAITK

T2: Nuclease W E715R (synthetic construct, E715R)
T2 chain: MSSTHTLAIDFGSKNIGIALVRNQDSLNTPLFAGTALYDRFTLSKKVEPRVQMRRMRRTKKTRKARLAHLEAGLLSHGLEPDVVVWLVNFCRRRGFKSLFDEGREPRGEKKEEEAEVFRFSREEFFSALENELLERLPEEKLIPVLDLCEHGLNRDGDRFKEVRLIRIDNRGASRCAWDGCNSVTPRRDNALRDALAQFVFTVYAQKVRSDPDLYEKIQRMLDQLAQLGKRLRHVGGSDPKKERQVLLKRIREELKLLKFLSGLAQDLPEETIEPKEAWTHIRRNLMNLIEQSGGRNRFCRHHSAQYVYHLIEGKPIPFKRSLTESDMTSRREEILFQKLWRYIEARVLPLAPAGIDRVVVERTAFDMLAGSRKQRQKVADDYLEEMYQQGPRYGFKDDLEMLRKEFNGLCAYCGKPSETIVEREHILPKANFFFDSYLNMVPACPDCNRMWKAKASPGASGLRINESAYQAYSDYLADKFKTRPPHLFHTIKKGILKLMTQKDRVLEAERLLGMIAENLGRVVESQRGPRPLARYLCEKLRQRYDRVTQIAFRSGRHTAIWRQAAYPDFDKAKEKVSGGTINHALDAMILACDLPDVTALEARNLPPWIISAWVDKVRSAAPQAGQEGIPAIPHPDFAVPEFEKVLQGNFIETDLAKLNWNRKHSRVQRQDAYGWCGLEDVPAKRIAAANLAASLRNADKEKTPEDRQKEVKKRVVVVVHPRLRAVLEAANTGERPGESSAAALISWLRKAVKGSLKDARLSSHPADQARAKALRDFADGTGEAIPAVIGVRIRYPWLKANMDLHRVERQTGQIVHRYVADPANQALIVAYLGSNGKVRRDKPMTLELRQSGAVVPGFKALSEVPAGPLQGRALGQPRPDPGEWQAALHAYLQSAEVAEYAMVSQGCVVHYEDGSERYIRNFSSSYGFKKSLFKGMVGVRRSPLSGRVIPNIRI

B1: S AAVS1-T7 RNA guide ; AAVS1-T7 target (S) (ssRNA ; dsDNA)
RNA: GGCUAUAAUCCAUGCUGACCGUUGUAUUCGGAUGGGAGUAAAAGGUUGAGUACACCUGGAAACAAAACGACAUAAAGGUGUUCUCCCAUCUGUGUACAAAGAGCAGAUAUAUGAGUUGAUAAGUAAUAUGUUGCACGUAUGGACUUUGACAGUCUGUACCUCUGCGUGAAAGACAUAUUGCGUUAUUCAUAUAUCUGUGAGUCUGUUCUAAAUUUAAAGGUUUAGGGAA
DNA 1: GGCTATAATCCATGCTGACC
DNA 2: GGTCAGCATGGATTATAGCC
B2: W EMX1-T5 RNA guide ; EMX1-T5 target (W) (ssRNA ; dsDNA)
RNA: UAAACUACAGUGGUGCCUGGGUUUCAGCUACCCUGAGUUUCUCAACUCCGUUGAGACUUCCUCAGGUUCAAGCUGAAAAGAGCAUCUGUCCGGAAGGACCACUCCGGGUUAGGGCAGACCCGGCUCUUGGGCUUCCUUGGUCUUUGACUCUGGAGGAAACCUUCCGGCGUGUCGCAAGACAAGAUGUGAGCCUG
DNA 1: TAAACTACAGTGGTGCCTGG
DNA 2: CCAGGCACCACTGTAGTTTA

Key:
[1] = target: T1, Nuclease S D179R; test: cell_activity; HEK293T; PAM AACC; settings: tags: N-term SV40 NLS, XTEN linker + C-term nucleoplasmin NLS
Protocol: HEK293T cells were transfected with plasmids expressing the Nuclease S polypeptides and the gRNAs provided herein following the methods provided in Example 1 above. Gene editing efficiencies were determined by NGS following the methods also provided in Example 1. The NGS results were analyzed also following the methods provided in Example 1 above.
For each target, indel ratios, referring to the percentage of NGS reads comprising indels, were calculated for the reference and for each variant. The indel ratios used for fold change calculations were the average of two technical replicates. To then calculate fold change in indel ratios at a particular target, the indel ratio for each variant was divided by the indel ratio for the reference. […] Numbering is relative to the reference nuclease of SEQ ID NO: 49 (i.e., without an NLS). […] The average fold change in indel ratio for the D844R variant at all targets was 5.27 times that of the indel ratio for the reference at all targets.

[2] = target: T2, Nuclease W E715R; test: cell_activity; HEK293T; PAM AAA; settings: tags: N-term SV40 NLS, XTEN linker + C-term nucleoplasmin NLS
Protocol: Approximately 16 hours prior to transfection, 25,000 HEK293T cells in DMEM/10% FBS+Pen/Strep (D10 media) were plated into each well of a 96-well plate. On the day of transfection, the cells were 50-90% confluent. For each well to be transfected, a mixture of Lipofectamine 2000™ (ThermoFisher Scientific) and Opti-MEM™ (ThermoFisher Scientific) was prepared and incubated at room temperature for 5 minutes (Solution 1). After incubation, the Lipofectamine 2000™:Opti-MEM™ mixture was added to a separate mixture containing the CRISPR nuclease plasmid (NLS-tagged), RNA guide plasmid, and Opti-MEM™ (Solution 2). In the case of negative controls, the CRISPR nuclease plasmid was excluded. Solutions 1 and 2 were mixed by pipetting up and down, then incubated at room temperature for 25 minutes. Following incubation, the Solution 1 and 2 mixture was added dropwise to each well of a 96-well plate containing the cells. Approximately 72 hours post transfection, cells were trypsinized by adding TrypLE™ (Thermo Fisher Scientific) to the center of each well and incubating at 37° C. for approximately 5 minutes. D10 media was then added to each well and mixed to resuspend cells. […]
Cells were transfected, and samples were prepared for NGS as described in Example 1. Indel ratios, referring to the percentage of NGS reads comprising indels, were calculated for the reference and for each variant. […]

Binder | fold change in indel ratio vs reference [1] [fold indel vs reference] | fold change in indel ratio vs reference [2] [fold indel vs reference]
B1 | 6.38 | 
B2 |  | 3.94
